# Test results taken from patent US20140120109A1 (Regeneron, published 2014).
# Positions count from the first letter of the chain named. Numbers in names are those of the source.
# T1: rat TL1A, soluble, CHO-expressed, residues 76-252 of SEQ ID NO:258 with N-terminal His6-tag (rat, UniProt Q8K3Y7 76-252)
# T1 construct: also called rTL1A; rTL1A (CHO)
# T1 sequence: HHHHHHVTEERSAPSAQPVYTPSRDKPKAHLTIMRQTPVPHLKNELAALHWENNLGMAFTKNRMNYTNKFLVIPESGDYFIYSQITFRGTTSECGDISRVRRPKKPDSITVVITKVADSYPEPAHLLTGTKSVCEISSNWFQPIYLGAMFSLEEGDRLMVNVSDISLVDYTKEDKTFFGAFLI
# T2: human TL1A, soluble, CHO-expressed, residues 72-251 of SEQ ID NO:244 with N-terminal His6-tag (human, UniProt O95150 72-251)
# T2 construct: also called hTL1A; hTL1A (CHO)
# T2 sequence: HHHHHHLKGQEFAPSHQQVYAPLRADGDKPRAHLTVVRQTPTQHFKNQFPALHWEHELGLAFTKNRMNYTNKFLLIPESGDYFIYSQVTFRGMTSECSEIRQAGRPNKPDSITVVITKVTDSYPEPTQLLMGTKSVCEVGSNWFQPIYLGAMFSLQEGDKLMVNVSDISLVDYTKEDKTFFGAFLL
# T3: Fhm, hTL1A(Q167R), soluble, CHO-expressed, residues 72-251 of SEQ ID NO:246 (human, UniProt O95150 72-251)
# T3 construct: also called Fhm (CHO); FHM (CHO)
# T3 chain: T2 sequence with Q102R
# T4: cynomolgus monkey TL1A, soluble, CHO-expressed, residues 72-251 of SEQ ID NO:248 with N-terminal His6-tag (cynomolgus monkey (Macaca fascicularis), UniProt O95150 72-251 (human entry))
# T4 chain: T2 sequence with F45L, I84V
# T5: cynomolgus monkey TL1A, soluble, E. coli-expressed, residues 72-251 of SEQ ID NO:248 (cynomolgus monkey (Macaca fascicularis), UniProt O95150 72-251 (human entry))
# T5 chain: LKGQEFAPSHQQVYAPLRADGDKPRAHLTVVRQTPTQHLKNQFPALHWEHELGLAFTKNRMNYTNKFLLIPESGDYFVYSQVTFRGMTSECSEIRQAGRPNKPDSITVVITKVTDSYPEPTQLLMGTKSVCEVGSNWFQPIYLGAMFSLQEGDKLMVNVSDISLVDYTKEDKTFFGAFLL
# T6: human TL1A, soluble, E. coli-expressed, residues 72-251 of SEQ ID NO:244 (human, UniProt O95150 72-251)
# T6 sequence: T5 chain with L39F, V78I
# B1: H4H1681N (antibody, human IgG4 S228P, V domains shown)
# VH: EVQLLESGGGLVQPGKSLRLSCAVSGFTFSTYGMNWVRQAPGKGLEWVSSISGTGRTTYHADSVQGRFTVSRDNSKNILYLQMNSLRADDTAVYFCTKERGDYYYGVFDYWGQGTLVTVSS
# VL: DIQMTQSPSTLSASVGDRVTITCRASQTISSWLAWYQQTPEKAPKLLIYAASNLQSGVPSRFSGSGSGTEFTLTISSLQPDDFATYYCQQYHRSWTFGQGTKVEIT
# B2: H4H1752P (antibody, human IgG4 S228P, V domains shown)
# VH: EVQLVESGGGLVQPGGSLRLSCSASGFTFSKYVMTWVRQAPGKGLEWVSAIGPTGRTTEYADSVQGRFTISRDNSMNTVFLHLNSLTAEDTAEYYCAKMFDWNYDVYFDSWGQGTLVTVSS
# VL: DIQMTQSPSILSASVGDRVTITCRTSQSISNWLAWYQQKPGKAPNLLIYKASSLESGVPSRFSGSGSGTEFTLTISSLQPDDFATYYCQQYYRYWTFGQGTKVEIK
# B3: H4H1704N (antibody, human IgG4 S228P, V domains shown)
# VH: EVQLVESGGGLVQPGGSLRLSCAVSGFTFSSYWMSWVRQAPGKGLEWVANIKEDGSEKNYVDSVKGRFTLSSDNAKNSLYLQMNSLRAEDTAVYYCAREDYDSYYKYGMDVWGQGTAVIVSS
# VL: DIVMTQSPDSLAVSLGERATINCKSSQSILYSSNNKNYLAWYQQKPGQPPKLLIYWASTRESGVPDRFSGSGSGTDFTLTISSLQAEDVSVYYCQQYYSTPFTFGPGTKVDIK
# notes: human IgG4(S108P) form of H2M1704N
# B4: H4H1804N (antibody, human IgG4 S228P, V domains shown)
# VH: QVQLHQWGAGLLKPSETLSLTCAVSGVSFSDYHWAWIRQSPGKGLEWIGDINHRGRTNYNPSLKSRVTISLDTSGNPFSLKLTSVTAADTAVYYCARDFPNWVFDSWGQGILVTVSS
# VL: EIVLSQSPGTLSLSPGERATLSCRASQSVSSSFLAWYQQYPGQAPRLLIYGASRRATGIPDRFRGSGSGTDFTLTISRLEPEDFAVYYCQQYGSSPLTFGGGTKVENK
# notes: human IgG4(S108P) form of H2M1804N
# B5: H4H1805N (antibody, human IgG4 S228P, V domains shown)
# VH: QVQLQQWGAGLLKPSETLSLTCAVYGGSFTGFYWSWIRQPPGKGLEWIGEINHRGNTNYNPSLKSRVTMSVDTSKNQFSLNMISVTAADTAMYFCASPFYDFWSGSDYWGQGTLVTVSS
# VL: DIMLTQTPLTSPVTLGQPASISCKSSQSLVHSDGNTYLSWLQQRPGQPPRLLFYKISNRFSGVPDRFSGSGAGTDFTLKISRVEAEDVGVYYCMQATQFPLTFGGGTKVEIK
# notes: human IgG4(S108P) form of H2M1805N
# B6: H4H1817N (antibody, human IgG4 S228P, V domains shown)
# VH: QVQLQQWGAGLLKPSETLSLTCAVSGGSFSDYFWTWIRQPPGKGLEWIGEISHSGRTNYNPSLKSRVTISVDTSMSQFSLKMTSVTAADSAVYYCARDYPNWVFDYWGQGTLVTVSS
# VL: EIELTQSPGTLSLSPGEGATLSCRASQSVFNSYLAWYQQKPGQAPRLLIYGASRRATGIPDRFSGSGSGTDFTLTISRLEPGDFAVYFCQQYGNSPLTFGGGTKVEIK
# notes: human IgG4(S108P) form of H2M1817N
# Target: T1, rat TL1A, soluble, CHO-expressed, …
# Experiment: SPR 25C, mAb captured
# Method in brief: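 Biacore T100 SPR with captured mAb and soluble TL1A/Fhm analyte; ka and kd fitted to a 1:1 model assuming monomeric TL1A. KD = kd/ka; t1/2 (min) = ln2/(60·kd).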
Binder,binding result,Kd [nM],t1/2 [min]
B1,no binding (tested: up to 100 nM),–,–
B2,no binding (tested: up to 100 nM),–,–
B3,–,0.404,25
B4,–,0.321,43
B5,no binding (tested: up to 100 nM),–,–
B6,–,2.5,25

# Target: T2, human TL1A, soluble, CHO-expressed, …
# Experiment: ELISA, blocks hTL1A (10 pM) binding hDcR3-Fc
# Experimental: (§1) The ability of antibodies to block human TL1A binding to its cognate receptors, the DR3 and DcR3 receptors, was measured using a competition sandwich ELISA. In addition, blocking of a human TL1A variant FHM (human TL1A Q167R) and the cynomolgus monkey (Macaca fascicularis) TL1A (MfTL1A) protein binding to the human DR3 or DcR3 receptors was measured in the same manner. Constant amounts of biotinylated human TL1A or FHM (both expressed with a 6-His tag in CHO cells) or biotinylated MfTL1A (expressed in CHO cells) were separately titrated with varying amounts of antibodies. The antibody-protein complexes were incubated in solution (1 hr, 25° C.) and then transferred to microtiter plates coated with human DR3 (hDR3) or human DcR3 (hDcR3) expressed as human IgG1 Fc fusion proteins. After one hour at 25° C. the wells were washed, and bound human or monkey TL1A was detected with streptavidin conjugated with horseradish peroxidase (HRP). Wells were developed with a TMB solution to produce a colorimetric reaction and quenched with aqueous sulfuric acid before reading absorbance at 450 nm on a Perkin-Elmer Victor X5 plate reader. A sigmoidal dose-response curve was fit to the data using the Prism™ data analysis package. […] Both fully human anti-hTL1A mAbs and comparator antibodies, i.e., control mAb1 (an anti-hTL1A antibody with heavy and light chain variable domains having the amino acid sequences corresponding to SEQ ID NOS:21 and 27, respectively, of US 2009/0280116) and control mAb3 (an anti-hTL1A antibody with heavy and light chain variable domains having the amino acid sequences corresponding to SEQ ID NOS:57 and 48, respectively, of US 2009/0280116), were included in the study. NB: No binding under the conditions tested; NT: Not tested. Concentrations of biotinylated soluble ligands: (1) 150 pM; (2) 500 pM; (3) 10 pM; and (4) 50 pM.
row,Binder,IC50 [nM]
1,B1,0.017
2,B2,0.031
3,B3,0.077
4,B4,0.175
5,B5,0.033
6,B6,0.27

# Target: T2, human TL1A, soluble, CHO-expressed, …
# Experiment: cell-based or functional assay
row,Binder,"Average % Blocking IFN-g, 3 ug/ml mAb [%]"
1,B1,95
2,B2,71
3,B3,98
4,B4,98
5,B5,94
6,B6,98

# Target: T3, Fhm, hTL1A(Q167R), soluble, …
# Experiment: ELISA, blocks FHM (150 pM) binding hDR3-Fc
# Experimental: as §1
row,Binder,IC50 [nM]
1,B3,0.044
2,B6,0.235

# Target: T4, cynomolgus monkey TL1A, soluble, …
# Experiment: cell-based or functional assay
row,Binder,"IC50, NFkB-luciferase reporter [nM]"
1,B1,0.03
2,B2,0.12
3,B3,0.01
4,B4,0.03
5,B5,0.03
6,B6,0.04

# Target: T2, human TL1A, soluble, CHO-expressed, …
# Experiment: cell-based or functional assay
# Remark: another data set of the same source
row,Binder,"IC50, NFkB-luciferase reporter [nM]"
1,B1,0.17
2,B2,0.36
3,B3,0.13
4,B4,0.07
5,B5,0.1
6,B6,0.11

# Target: T5, cynomolgus monkey TL1A, soluble, E. …
# Experiment: cell-based or functional assay
row,Binder,"IC50, NFkB-luciferase reporter [nM]"
1,B1,0.02
2,B2,0.05
3,B3,0.03
4,B4,0.02
5,B5,0.02
6,B6,0.02

# Target: T6, human TL1A, soluble, E. coli-expressed, …
# Experiment: cell-based or functional assay
row,Binder,"IC50, NFkB-luciferase reporter [nM]"
1,B1,0.02
2,B2,0.21
3,B3,0.06
4,B4,0.03
5,B5,0.04
6,B6,0.04
